Data on one molecule can be found in patent US20160130351A1 (NOVIMMUNE S A, published 2016).

One test addresses T1, MUTANT 4 (mouse, UniProt P22272).
T1 construct: also called mouse IL-6R with human residues in D3, mutant 4
T1 sequence (receptor chain, looked up): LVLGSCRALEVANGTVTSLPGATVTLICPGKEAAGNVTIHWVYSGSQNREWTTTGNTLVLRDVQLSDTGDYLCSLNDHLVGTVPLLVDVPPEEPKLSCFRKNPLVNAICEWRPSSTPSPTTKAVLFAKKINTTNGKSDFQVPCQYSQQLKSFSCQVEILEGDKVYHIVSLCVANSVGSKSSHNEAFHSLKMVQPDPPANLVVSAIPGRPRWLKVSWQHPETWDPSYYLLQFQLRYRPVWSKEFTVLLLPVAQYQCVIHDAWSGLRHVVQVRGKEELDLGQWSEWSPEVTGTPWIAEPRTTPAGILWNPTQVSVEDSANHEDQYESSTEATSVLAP
Kind of test: flow cytometry on PEAK cells displaying the mutated mouse IL-6R, goat anti-human IgG Alexa Fluor 647. The text has this:
(§1) An overlap extension PCR strategy was used to generate coding sequences specifying huIL-6R/mouseIL-6R chimeric proteins (FIG. 6A) and mouse IL-6R proteins containing human amino acid substitutions in D3 domains (FIG. 6B). Partially overlapping mutagenic oligonucleotide primers were used for PCR amplification of N- and C-terminal sequences on either side of huIL-6R/mouse IL-6R junctions or substituted regions, followed by gel isolation and annealing of the denatured PCR products. Full length PCR products were then digested by EcoRI and BglII and ligated into a pDISPLAY™ vector (Invitrogen). PEAK cells were grown in DMEM medium supplemented with 10% fetal calf serum and 4 mM L-glutamine. Cells were plated 12 to 24 h before transfection to have 40-50% confluency in 6 well plates. Transfections of pDISPLAY™ vectors (Invitrogen) were carried out by lipofection using TransIT® LT1 reagent (MirusBio) according manufacturer's specifications. Cells were grown for 48 h before harvesting and analysis by flow cytometry.
(§2) Cell surface staining was performed on PEAK cells displaying each variant of IL-6R and analyzed by flow cytometry (FIG. 6B-D). Cell surface expression of each chimeric IL-6R was assessed using an anti-human-CD126 PE or an anti-mouse CD126-PE antibody (BD Pharmingen).
For orientation: A flow cytometer gives signals particle by particle.

The next test deals with T2, MUTANT 2 (mouse, UniProt P22272).
T2 construct: also called mouse IL-6R with human residues in D3, mutant 2
T2 sequence (receptor chain, looked up): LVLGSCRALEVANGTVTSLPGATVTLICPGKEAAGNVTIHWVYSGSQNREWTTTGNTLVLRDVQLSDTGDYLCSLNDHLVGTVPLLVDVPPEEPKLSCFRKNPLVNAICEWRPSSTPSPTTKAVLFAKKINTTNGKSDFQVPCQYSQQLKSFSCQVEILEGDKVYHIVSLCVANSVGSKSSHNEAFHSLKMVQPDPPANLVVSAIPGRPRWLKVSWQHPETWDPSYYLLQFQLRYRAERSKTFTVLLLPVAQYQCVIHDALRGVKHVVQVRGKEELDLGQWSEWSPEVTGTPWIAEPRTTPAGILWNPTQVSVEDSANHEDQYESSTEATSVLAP
Described as above.
Source text: as §1, §2

A further test addresses T3, MUTANT 1 (mouse, UniProt P22272).
T3 construct: also called mouse IL-6R with human residues in D3, mutant 1
T3 sequence (receptor chain, looked up): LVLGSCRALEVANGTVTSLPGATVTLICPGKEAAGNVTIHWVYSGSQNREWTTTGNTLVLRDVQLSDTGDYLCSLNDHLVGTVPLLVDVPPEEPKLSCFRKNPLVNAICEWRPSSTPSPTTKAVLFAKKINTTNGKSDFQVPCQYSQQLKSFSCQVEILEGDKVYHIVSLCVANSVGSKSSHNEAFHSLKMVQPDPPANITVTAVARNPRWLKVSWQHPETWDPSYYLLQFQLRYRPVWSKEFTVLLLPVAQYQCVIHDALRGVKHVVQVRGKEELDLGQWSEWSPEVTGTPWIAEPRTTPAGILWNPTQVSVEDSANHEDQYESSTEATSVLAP
The description is as above.
Source text: as §1, §2

In a further test the target is T4, MUTANT 3 (mouse, UniProt P22272).
T4 construct: also called mouse IL-6R with human residues in D3, mutant 3
T4 sequence (receptor chain, looked up): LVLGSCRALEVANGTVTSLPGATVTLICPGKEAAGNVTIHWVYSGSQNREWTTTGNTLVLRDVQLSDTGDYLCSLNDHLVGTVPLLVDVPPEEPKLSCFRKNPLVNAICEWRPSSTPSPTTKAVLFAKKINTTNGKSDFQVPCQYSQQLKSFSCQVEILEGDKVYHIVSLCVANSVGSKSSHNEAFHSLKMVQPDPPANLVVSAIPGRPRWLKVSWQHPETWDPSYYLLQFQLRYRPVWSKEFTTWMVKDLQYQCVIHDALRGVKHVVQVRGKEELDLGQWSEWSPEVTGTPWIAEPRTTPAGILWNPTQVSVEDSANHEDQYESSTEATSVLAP
Described as above.
Source text: as §1, §2

The target in test [1] is soluble human IL-6Rc (shuIL-6Rc) recombinant fusion protein of IL-6R and IL-6 (human) (UniProt P08887). Nature of the test: SPR (Biacore 2000), mAb captured on anti-human IgG Fc, analyte in solution, 25 C, 1:1 Langmuir. In general terms: Surface plasmon resonance follows binding to a sensor surface in real time, without labels.
The target in another test is T5, FULLY MOUSE IL-6R (mouse, UniProt P22272).
T5 construct: also called chimeric receptor #5
T5 sequence (receptor chain, looked up): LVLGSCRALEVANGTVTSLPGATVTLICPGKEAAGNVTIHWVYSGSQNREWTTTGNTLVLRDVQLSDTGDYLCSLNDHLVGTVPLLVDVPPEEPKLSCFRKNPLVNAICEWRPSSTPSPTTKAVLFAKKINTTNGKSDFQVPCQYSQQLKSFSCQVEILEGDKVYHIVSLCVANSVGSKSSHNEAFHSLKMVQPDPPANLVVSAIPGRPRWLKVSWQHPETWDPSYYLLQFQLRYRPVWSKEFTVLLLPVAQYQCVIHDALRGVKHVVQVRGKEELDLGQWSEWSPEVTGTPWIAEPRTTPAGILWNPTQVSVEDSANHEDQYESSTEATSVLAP
Nature of the test: flow cytometry on PEAK cells displaying the IL-6R variant, goat anti-human IgG Alexa Fluor 647.
Source text: as §1, §2

B1: NI-1201 wild type (NI-1201-WT) antibody (antibody, V domains shown)
VH: QVQLVQSGAEVKKPGSSVKVSCKASGGTFSSYAISWVRQAPGQGLEWMGGIIPLFDTTKYAQQFQGRVTITADESTSTAYMELSSLRSEDTAVFYCARDRDILTDYYPMGGMDVWGQGTTVTVSS
VL: AIQLTQSPSSLSASVGDRVTITCRASQGISSVLAWYQQKPGKAPKLLIYDASSLESGVPSRFSGSGSGTDFTLTISSLQPEDFATYYCQQSNSYPLTFGGGTKVEIKR
notes: Fully human monoclonal IgG (captured by anti-human IgG Fc in Biacore); also called 39B9 VL1
In general, Kd refers to the equilibrium constant for the complex coming apart. By koff is commonly meant the first-order rate constant of dissociation. As usually defined, the kon is the rate constant with which the complex forms. For the molecule B1, the binding result with MUTANT 4 is recorded as “no binding”; with MUTANT 2 it was “binds”; with MUTANT 1, “no binding”; with MUTANT 3 it was “no binding”; with FULLY MOUSE IL-6R it was “no binding”. The Kd in test [1] is 5.64 nM. Besides, the koff in test [1] came out at 0.000243 s⁻¹. In test [1], the on-rate (kon) turned out to be 43100 M⁻¹ s⁻¹.
